In publication PMC6339873 (Frontiers in Microbiology, 2018):

Assays:
[1] = target: st_YfdX(YI), S. Typhi YfdX with Y100A and I137A (Salmonella enterica serovar Typhi); test: […]; pH 6.0; […] (pH 6.0), 200 mM NaCl, 1 mM DTT, […]
[2] = target: st_YfdX(YI), S. Typhi YfdX with Y100A and I137A (Salmonella enterica serovar Typhi); test: […]; pH 7.5; […] (pH 7.5), 200 mM NaCl, 1 mM DTT, […]
[3] = target: the molecule itself; test: as above
[4] = target: the molecule itself; test: crystal structure; sitting-drop vapor diffusion at 18°C; crystal I and II at pH 4.6 (F222), crystal III at pH 5.0 (P222); crystals II and III from protein with 1 mM ZnCl2; the tetramer is seen in the crystal lattice
[5] = target: the molecule itself; test: SEC-MALS; Superdex 75 Increase 10/300 GL; pH 6.0; st_YfdX proteins in 20 mM Bis-Tris-HCl (pH 6.0), 200 mM NaCl, 1 mM DTT, wild type at 10 and 30 mg/mL, mutants at 30 mg/mL; buffer and concentration of kp_YfdX not told
[6] = target: the molecule itself; test: SEC-MALS; pH 10.0 (kp_YfdX, Supplementary Figure S1)

## st_YfdX(YI), S. Typhi YfdX with Y100A and I137A (domain or fragment)
[1]
  stoichiometry N: 2
[2]
  stoichiometry N: 2

B1: S. Typhi YfdX, residues 10-186 (st_YfdX), wild type (domain or fragment)
chain: MAATNMTDNVTLNNDKISGQAWQAMRDIGMSRFELFNGRTQKAEQLAAQAEKLLNDDSTDWNLYVKSDKKAPVEGDHYIRINSSITVAEDYLPAGQKNDAINKANQKMKEGDKKGTIEALKLAGVSVIENQELIPLQQTRKDVTTALSLMNEGKYYQAGLLLKSAQDGIVVDSQSVQLEHHHHHH
[3]
  stoichiometry N: 2
[4]
  stoichiometry N: 4

B2: K. pneumoniae YfdX (kp_YfdX), recombinant (natural protein)
chain: ATDSATAAPAAAATTQVQKEAADVLQVAVQGANAMRDIQFARLALFHGQPDSAKKLTDDAAALLAADDASWAKFVKTDAKAKMIADRYVIINASIALSEDYVATPEKESAIQSANEKLAKGDQKGAIDTLRLAGIGVIENQYLMPLNQTRKAVAQSQELLKAGKYYEANLVLKGAEEGIVVDSEMLVAGN
notes: YfdX of Klebsiella pneumoniae; Cloned into pET21a; PDB 3DZA (cited) holds a crystal structure of the same protein
[5]
  stoichiometry N: 4
[6]
  stoichiometry N: 2
